Measurements published in patent publication US20210101960A1.
pKd: −log10 of the molar value.

Columns and labels:
[1] = molecular target: opioid sensor based on the Mu-opioid receptor (cpGFP inserted into the Loop3 of the Mu-opioid receptor) (human); assay: in situ fluorescence titration (drug/response curve, 1 nM to 1 µM DAMGO) on HEK293T cells expressing the opioid sensor
[2] = molecular target: opioid sensor based on the Mu-opioid receptor (cpGFP inserted into the Loop3 of the Mu-opioid receptor) (human); assay: cell-based or functional assay

pKd [1]: 7.60 | ΔF/F (fluorescence change of the sensor) [2]: 25%
Substance: DAMGO (peptide)
